Patent publication US20260151519A1 (AKTIS ONCOLOGY, published 2026)
Primed or numbered codes have the meaning given here. Where no end group is shown, it is not given here. [ ]: non-standard residue; d: D form. The star is where a group is joined. Biotin = O=C1N[C@H]2[C@H](CS[C@H]2CCCCC(=O)*)N1; Lys(Me3) = C[N+](C)(C)CCCC[C@H](N)C(=O)O; PEG4′ = not defined here

Experiments:
Human Nectin-4 [1] = target: T1, Human Nectin-4 (human, UniProt Q96NY8 32-349, limits assumed); experiment: SPR, Biacore T200, target immobilised, 1:1 model
T1 construct: Protein immobilised on the SPR chip; also called target protein
T1 sequence: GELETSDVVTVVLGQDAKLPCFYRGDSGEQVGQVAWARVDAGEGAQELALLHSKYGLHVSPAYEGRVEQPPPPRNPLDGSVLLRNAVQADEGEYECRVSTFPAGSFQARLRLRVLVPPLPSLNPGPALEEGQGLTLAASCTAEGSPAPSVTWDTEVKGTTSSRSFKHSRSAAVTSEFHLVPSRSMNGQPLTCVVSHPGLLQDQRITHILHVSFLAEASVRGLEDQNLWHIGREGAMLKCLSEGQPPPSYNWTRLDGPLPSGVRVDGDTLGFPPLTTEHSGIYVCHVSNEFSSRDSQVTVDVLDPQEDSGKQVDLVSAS
Description: Surface plasmon resonance (SPR) analyses were performed using Biacore T200 (GE Healthcare). Target protein (“ligand”) was immobilized to a CM5 Series S sensor chip (Cytiva) using amine-coupling chemistry. Running buffer was 0.05% surfactant P20 in HEPES buffered saline (HBS-P), pH 7.4 (Cytiva). Immobilization was performed at 25° C. Carboxyl groups in each flow cell were activated using a 1:1 mixture of 0.4 M 1-ethyl-3-(3-dimethylaminopropyl)-carbodiimide in water (EDC) and 0.1 M N-hydroxysuccinimide in water (NHS) for 7 minutes. The ligand was prepared in 10 mM sodium acetate pH 5 (Cytiva). Pulsatile injections were made to target a specific immobilization level. Any remaining amine-reactive esters on the chip surface were blocked with a 7-minute injection of 1 M ethanolamine, pH 8.5. Three 10-second pulses of 50 mM sodium hydroxide were then made to remove any unbound ligand. Reference cells were modified using amine coupling chemistry, omitting ligand injection.
Increase in signal (RU) is proportional to an increase in binding events between the analyte and ligand surface. The injection was then stopped, and dissociation was measured. […] Measured association (kₐ, 1/Ms⁻¹) and dissociation (kd, s⁻¹) were fit to a 1:1 binding model to calculate a dissociation equilibrium constant, KD(M) for each analyte.

PAPPA = target: T2, PAPPA (human, UniProt Q13219 82-1627); experiment: cell microarray on HEK293 cells
T2 construct: whole, on cells; Secreted targets were tethered to the plasma membrane
T2 sequence (Q13219 82-1627): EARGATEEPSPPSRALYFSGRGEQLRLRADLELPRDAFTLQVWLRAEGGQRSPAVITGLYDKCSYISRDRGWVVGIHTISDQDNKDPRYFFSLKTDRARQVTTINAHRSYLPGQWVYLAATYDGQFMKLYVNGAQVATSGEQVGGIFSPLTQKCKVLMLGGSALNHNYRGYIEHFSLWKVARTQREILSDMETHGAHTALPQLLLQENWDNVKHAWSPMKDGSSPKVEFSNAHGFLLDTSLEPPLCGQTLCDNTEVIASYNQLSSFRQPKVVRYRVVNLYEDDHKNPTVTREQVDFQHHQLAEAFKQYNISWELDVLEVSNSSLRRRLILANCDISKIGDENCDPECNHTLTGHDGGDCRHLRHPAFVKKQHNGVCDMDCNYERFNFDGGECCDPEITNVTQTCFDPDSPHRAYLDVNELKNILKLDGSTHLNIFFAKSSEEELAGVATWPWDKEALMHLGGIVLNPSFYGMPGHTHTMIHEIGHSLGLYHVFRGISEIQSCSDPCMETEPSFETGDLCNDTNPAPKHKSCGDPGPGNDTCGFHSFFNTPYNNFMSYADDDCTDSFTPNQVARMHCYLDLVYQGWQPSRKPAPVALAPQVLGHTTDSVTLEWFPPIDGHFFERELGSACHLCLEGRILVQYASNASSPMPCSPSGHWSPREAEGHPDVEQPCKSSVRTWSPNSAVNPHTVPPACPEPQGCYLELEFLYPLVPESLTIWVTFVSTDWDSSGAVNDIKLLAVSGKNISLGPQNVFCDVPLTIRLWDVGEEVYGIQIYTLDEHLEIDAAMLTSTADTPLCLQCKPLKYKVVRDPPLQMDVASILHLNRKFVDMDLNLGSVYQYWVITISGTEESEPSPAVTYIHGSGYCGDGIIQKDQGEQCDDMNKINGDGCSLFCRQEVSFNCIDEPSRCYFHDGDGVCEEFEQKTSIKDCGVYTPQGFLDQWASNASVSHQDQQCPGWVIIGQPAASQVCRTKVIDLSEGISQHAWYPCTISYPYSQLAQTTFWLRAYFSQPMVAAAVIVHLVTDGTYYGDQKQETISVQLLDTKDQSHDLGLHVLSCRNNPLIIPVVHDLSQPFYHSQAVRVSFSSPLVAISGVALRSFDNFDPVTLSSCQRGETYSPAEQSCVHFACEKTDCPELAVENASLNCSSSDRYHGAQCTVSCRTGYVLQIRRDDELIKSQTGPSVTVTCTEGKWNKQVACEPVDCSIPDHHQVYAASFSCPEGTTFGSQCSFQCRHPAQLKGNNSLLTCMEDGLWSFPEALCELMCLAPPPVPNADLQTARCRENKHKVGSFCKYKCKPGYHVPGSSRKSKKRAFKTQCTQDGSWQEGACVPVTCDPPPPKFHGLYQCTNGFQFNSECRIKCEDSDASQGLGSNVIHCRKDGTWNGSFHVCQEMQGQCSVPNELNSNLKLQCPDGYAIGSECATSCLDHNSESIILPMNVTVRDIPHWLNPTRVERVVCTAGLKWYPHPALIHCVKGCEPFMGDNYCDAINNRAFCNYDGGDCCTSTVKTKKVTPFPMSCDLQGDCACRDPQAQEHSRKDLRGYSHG
Description: (§1) Initially, two pools of compounds were tested. […] To perform this assay, HEK293 cells were plated on a dish and localized spots of cells were transiently over-expressed with a single cDNA encoding for GFP and one of the 6,416 targets. Included in this library were multiple clones for the Nectin family members, including plasma membrane, non-tethered secreted, and tethered secreted forms of Nectin-1, 2, 3, and 4. Secreted protein targets were tethered to the plasma membrane to aid in detection. The molecule pools were incubated on the fixed, over-expressing cell microarrays (n=2 per protein), and binding was visualized using Alexa Fluor 647 streptavidin fluorescence.

IGF2 = target: T3, IGF2 (human, UniProt P01344 25-91); experiment: cell microarray on HEK293 cells
T3 construct: whole, on cells; Secreted targets were tethered to the plasma membrane
T3 sequence (P01344 25-91): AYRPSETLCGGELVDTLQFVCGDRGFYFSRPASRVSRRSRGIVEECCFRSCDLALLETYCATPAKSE
Description: as §1

IGF1 = target: T4, IGF1 (human, UniProt P05019 49-118); experiment: cell microarray on HEK293 cells
T4 construct: whole, on cells; Secreted targets were tethered to the plasma membrane
T4 sequence (P05019 49-118): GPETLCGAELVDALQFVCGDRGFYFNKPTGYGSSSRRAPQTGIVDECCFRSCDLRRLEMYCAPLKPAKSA
Description: as §1

IGFBP3 = target: T5, IGFBP3 (human, UniProt P17936 28-291); experiment: cell microarray on HEK293 cells
T5 construct: whole, on cells; Secreted targets were tethered to the plasma membrane
T5 sequence (P17936 28-291): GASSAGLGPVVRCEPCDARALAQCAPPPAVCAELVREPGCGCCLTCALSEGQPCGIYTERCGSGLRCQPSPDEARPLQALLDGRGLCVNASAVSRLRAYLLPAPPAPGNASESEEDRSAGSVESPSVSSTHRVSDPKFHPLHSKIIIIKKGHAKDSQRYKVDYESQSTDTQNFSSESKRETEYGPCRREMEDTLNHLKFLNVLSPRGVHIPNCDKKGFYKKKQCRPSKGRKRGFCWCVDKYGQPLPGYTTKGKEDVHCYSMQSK
Description: as §1

SLC22A23 = target: T6, SLC22A23 (human, UniProt A1A5C7 1-686); experiment: cell microarray on HEK293 cells
T6 construct: whole, on cells
T6 sequence (looked up): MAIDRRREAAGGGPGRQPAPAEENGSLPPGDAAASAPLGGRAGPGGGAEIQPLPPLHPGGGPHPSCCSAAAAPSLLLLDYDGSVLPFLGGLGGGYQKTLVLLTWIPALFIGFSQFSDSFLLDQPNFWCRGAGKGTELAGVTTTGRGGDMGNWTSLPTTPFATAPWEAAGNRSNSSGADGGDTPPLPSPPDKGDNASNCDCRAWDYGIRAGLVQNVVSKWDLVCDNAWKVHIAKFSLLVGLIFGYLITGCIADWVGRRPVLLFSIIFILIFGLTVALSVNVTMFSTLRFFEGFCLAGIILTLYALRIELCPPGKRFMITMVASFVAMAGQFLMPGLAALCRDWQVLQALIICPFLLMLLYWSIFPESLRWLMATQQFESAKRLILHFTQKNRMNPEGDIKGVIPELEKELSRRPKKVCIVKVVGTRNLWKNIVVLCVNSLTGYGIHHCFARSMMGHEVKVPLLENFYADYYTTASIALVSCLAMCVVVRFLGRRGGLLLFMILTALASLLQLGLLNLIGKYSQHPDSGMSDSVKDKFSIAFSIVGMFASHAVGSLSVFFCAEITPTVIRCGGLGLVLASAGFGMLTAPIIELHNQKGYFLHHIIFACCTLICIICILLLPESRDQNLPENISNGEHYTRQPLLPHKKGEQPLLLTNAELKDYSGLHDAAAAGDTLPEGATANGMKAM
Description: as §1

EGF = target: T7, EGF (human, UniProt P01133 23-1207); experiment: cell microarray on HEK293 cells
T7 construct: whole, on cells
T7 sequence (P01133 23-1207): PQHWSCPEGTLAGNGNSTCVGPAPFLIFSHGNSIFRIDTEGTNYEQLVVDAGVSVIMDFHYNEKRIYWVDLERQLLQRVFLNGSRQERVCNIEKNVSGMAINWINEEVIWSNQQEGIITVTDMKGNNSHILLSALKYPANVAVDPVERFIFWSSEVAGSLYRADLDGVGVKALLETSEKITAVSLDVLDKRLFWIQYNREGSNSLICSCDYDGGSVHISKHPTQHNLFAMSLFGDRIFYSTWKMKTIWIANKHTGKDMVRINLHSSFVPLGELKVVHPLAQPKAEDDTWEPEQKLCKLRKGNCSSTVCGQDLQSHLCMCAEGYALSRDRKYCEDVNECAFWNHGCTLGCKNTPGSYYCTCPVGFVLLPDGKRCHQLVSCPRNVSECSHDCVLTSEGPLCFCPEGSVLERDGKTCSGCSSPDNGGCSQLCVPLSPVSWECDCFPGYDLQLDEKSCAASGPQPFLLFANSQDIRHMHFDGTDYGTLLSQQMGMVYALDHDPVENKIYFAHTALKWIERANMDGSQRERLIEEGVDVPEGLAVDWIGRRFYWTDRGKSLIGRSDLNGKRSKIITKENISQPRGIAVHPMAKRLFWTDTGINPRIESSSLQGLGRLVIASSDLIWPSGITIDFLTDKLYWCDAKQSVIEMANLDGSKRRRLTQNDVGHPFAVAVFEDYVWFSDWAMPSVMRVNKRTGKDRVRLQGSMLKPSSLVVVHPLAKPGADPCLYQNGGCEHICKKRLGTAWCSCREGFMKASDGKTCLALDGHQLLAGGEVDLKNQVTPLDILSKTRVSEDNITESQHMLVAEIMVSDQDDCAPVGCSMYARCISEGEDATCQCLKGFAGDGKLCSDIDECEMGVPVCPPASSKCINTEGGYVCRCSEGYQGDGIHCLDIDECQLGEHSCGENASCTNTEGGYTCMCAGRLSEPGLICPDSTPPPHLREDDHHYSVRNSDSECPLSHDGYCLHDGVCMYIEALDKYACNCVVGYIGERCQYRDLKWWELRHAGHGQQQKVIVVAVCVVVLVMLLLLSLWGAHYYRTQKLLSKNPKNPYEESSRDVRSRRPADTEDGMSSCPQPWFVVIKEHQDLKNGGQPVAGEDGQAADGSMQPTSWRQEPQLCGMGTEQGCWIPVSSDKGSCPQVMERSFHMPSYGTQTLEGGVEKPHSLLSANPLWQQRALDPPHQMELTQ
Description: as §1

TRPV4 = target: T8, TRPV4 (human, UniProt Q9HBA0 1-871); experiment: cell microarray on HEK293 cells
T8 construct: whole, on cells
T8 sequence (Q9HBA0 whole entry): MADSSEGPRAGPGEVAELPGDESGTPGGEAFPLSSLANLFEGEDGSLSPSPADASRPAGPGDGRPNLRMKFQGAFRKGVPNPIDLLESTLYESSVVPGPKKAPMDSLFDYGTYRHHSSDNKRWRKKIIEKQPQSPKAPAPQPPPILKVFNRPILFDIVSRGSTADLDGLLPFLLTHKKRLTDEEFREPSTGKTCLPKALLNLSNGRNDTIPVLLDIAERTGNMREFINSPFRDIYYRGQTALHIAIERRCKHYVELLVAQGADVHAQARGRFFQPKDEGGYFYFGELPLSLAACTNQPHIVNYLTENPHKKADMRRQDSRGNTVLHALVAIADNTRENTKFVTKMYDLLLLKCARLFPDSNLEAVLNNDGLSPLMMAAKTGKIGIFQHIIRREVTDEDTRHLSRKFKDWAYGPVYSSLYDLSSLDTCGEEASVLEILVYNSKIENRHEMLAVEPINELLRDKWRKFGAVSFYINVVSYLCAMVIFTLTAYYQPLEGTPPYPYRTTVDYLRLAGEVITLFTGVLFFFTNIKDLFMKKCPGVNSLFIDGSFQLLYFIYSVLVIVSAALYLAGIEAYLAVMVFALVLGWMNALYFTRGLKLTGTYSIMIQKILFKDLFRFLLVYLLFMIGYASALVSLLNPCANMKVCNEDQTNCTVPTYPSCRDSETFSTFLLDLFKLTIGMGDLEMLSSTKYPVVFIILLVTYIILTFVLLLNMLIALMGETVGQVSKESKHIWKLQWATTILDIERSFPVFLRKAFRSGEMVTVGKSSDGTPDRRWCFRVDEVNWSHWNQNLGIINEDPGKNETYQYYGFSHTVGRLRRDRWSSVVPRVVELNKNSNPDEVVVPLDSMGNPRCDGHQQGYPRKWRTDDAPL
Description: as §1

EDN2 = target: T9, EDN2 (human, UniProt P20800 49-69); experiment: cell microarray on HEK293 cells
T9 construct: whole, on cells; Secreted targets were tethered to the plasma membrane
T9 chain (looked up): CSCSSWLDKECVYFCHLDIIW
Description: as §1

CXCL12 = target: T10, CXCL12 (human, UniProt P48061 22-93); experiment: cell microarray on HEK293 cells
T10 construct: whole, on cells; Secreted targets were tethered to the plasma membrane
T10 sequence (P48061 22-93): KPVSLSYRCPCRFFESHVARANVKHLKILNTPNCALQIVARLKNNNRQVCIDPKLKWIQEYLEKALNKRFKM
Description: as §1

Human Nectin-4 [2] = target: T1, Human Nectin-4; experiment: Table 2B (DELFIA or SPR)

| Binder | Kd (Human Nectin-4 [1]) [nM] | binding result (PAPPA) | binding result (IGF2) | binding result (IGF1) | binding result (IGFBP3) | binding result (SLC22A23) | binding result (EGF) | binding result (TRPV4) | binding result (EDN2) | binding result (CXCL12) | Kd (Human Nectin-4 [2]) [nM] |
| --- | --- | --- | --- | --- | --- | --- | --- | --- | --- | --- | --- |
| {Biotin-PEG4′}-CEYDEEFFTALARLRGGDICQYIQA[Lys(Me3)]FQYLPALCIEEILDNLGCS (designed binder, cysteine pairing not given here) [C253] | 0.255 | no binding (tested: 2 µg/mL) | no binding (tested: 2 µg/mL) | no binding (tested: 2 µg/mL) | no binding (tested: 2 µg/mL) | no binding (tested: 2 µg/mL) | no binding (tested: 2 µg/mL) | no binding (tested: 2 µg/mL) | no binding (tested: 2 µg/mL) | no binding (tested: 2 µg/mL) | – |
| {Biotin-PEG4′}-CDYDEQFFTALKRLRGADICEYIQASFQYLPGECIEEILDNLGCS (designed binder, cysteine pairing not given here) [C208] | 0.302 | no binding (tested: 2 µg/mL) | no binding (tested: 2 µg/mL) | no binding (tested: 2 µg/mL) | no binding (tested: 2 µg/mL) | no binding (tested: 2 µg/mL) | no binding (tested: 2 µg/mL) | no binding (tested: 2 µg/mL) | no binding (tested: 2 µg/mL) | no binding (tested: 2 µg/mL) | 1.02 |
| {Biotin-PEG4′}-CDYDEQFFTALKRLRGGDICEYIQASFQYLPGLCIEEILDNLGCS (designed binder, cysteine pairing not given here) [C190] | 0.318 | no binding (tested: 2 µg/mL) | no binding (tested: 2 µg/mL) | no binding (tested: 2 µg/mL) | no binding (tested: 2 µg/mL) | no binding (tested: 2 µg/mL) | no binding (tested: 2 µg/mL) | no binding (tested: 2 µg/mL) | no binding (tested: 2 µg/mL) | no binding (tested: 2 µg/mL) | 0.71 |
| {Biotin-PEG4′}-CEYDEQFFTALKRLRGDDICDYIQASFQYLPGLCIEEILDNLGCS (designed binder, cysteine pairing not given here) [C197] | 0.212 | no binding (tested: 2 µg/mL) | no binding (tested: 2 µg/mL) | no binding (tested: 2 µg/mL) | no binding (tested: 2 µg/mL) | no binding (tested: 2 µg/mL) | no binding (tested: 2 µg/mL) | no binding (tested: 2 µg/mL) | no binding (tested: 2 µg/mL) | no binding (tested: 2 µg/mL) | 0.97 |
| {Biotin-PEG4′}-CDYDEQFFTALARLRGADICEYIQASFQYLPGECIEEILDNLGCS (designed binder, cysteine pairing not given here) [C247] | 0.283 | no binding (tested: 2 µg/mL) | no binding (tested: 2 µg/mL) | no binding (tested: 2 µg/mL) | no binding (tested: 2 µg/mL) | no binding (tested: 2 µg/mL) | no binding (tested: 2 µg/mL) | no binding (tested: 2 µg/mL) | no binding (tested: 2 µg/mL) | no binding (tested: 2 µg/mL) | – |
